Reference: patent US20120171195A1
Each block holds one substance with its values, some of them ahead of it.

Key:
HLA-B*1511 (human) = HLA-B*1511 (human) (UniProt P01889); test: Luminex beads; MAb 1/800; PBS only
HLA-B*1513 (human) = test: Luminex beads; MAb 1/800; PBS only
HLA-B*3701 (human) = test: Luminex beads; MAb 1/800; PBS only
HLA-B*4101 (human) = HLA-B*4101 (human) (UniProt P01889); test: Luminex beads; MAb 1/800; PBS only
HLA-B*4403 (human) = test: Luminex beads; MAb 1/800; PBS only
HLA-B*5101 (human) = test: Luminex beads; MAb 1/800; PBS only
HLA-B*5201 (human) = test: Luminex beads; MAb 1/800; PBS only
HLA-B*8201 (human) = HLA-B*8201 (human) (UniProt P01889); test: Luminex beads; MAb 1/800; PBS only
HLA-Cw*0303 (human) = test: Luminex beads; MAb 1/800; PBS only
HLA-Cw*0304 (human) [1] = test: Luminex beads; MAb 1/800; PBS only
HLA-Cw*0602 (human) = HLA-Cw*0602 (human) (UniProt P10321); test: Luminex beads; MAb 1/800; PBS only
HLA-Cw*1601 (human) = HLA-Cw*1601 (human) (UniProt P10321); test: Luminex beads; MAb 1/800; PBS only
HLA-Cw*1701 (human) = test: Luminex beads; MAb 1/800; PBS only
HLA-Cw*1802 (human) = HLA-Cw*1802 (human) (UniProt P10321); test: Luminex beads; MAb 1/800; PBS only
HLA-A*2402 (A24) (human) = HLA-A*2402 (A24) (human) (UniProt P04439); test: Luminex single-antigen beads; MEM-E/02 1/600; serum Mi114 1/100
HLA-A*2403 (A24) (human) = test: as above
HLA-A*2501 (A25) (human) = test: as above
HLA-A*2601 (A26) (human) = test: as above
HLA-A*2901 (A29) (human) = HLA-A*2901 (A29) (human) (UniProt P04439); test: as above
HLA-A*3002 (A30) (human) = HLA-A*3002 (A30) (human) (UniProt P04439); test: as above
HLA-B*0801 (B8) (human) = HLA-B*0801 (B8) (human) (UniProt P01889); test: as above
HLA-B*1511 (B75) (human) = HLA-B*1511 (B75) (human) (UniProt P01889); test: as above
HLA-B*1513 (B77) (human) = test: as above
HLA-B*1801 (B18) (human) = test: as above
HLA-B*2708 (B27) (human) = HLA-B*2708 (B27) (human) (UniProt P01889); test: as above
HLA-B*3801 (B38) (human) = test: as above
HLA-B*3901 (B39) (human) = HLA-B*3901 (B39) (human) (UniProt P01889); test: as above
HLA-B*4403 (B44) (human) = test: as above
HLA-B*4501 (B45) (human) = test: as above
HLA-B*5001 (B50) (human) = test: as above
HLA-B*5201 (B52) (human) = test: as above
HLA-B*5401 (B54) (human) = HLA-B*5401 (B54) (human) (UniProt P01889); test: as above
HLA-B*5801 (B58) (human) = test: as above
HLA-B*5901 (B59) (human) = test: as above
HLA-B*6701 (B67) (human) = HLA-B*6701 (B67) (human) (UniProt P01889); test: as above
HLA-Cw*0304 (human) [2] = test: as above
[3] = biological target: HLA-Cw*0801 (Cw8) (human) (UniProt P10321); test: as above
[4] = biological target: HLA-Cw*1203 (Cw12) (human) (UniProt P10321); test: as above
[5] = biological target: HLA-Cw*1802 (Cw18) (human) (UniProt P10321); test: as above

MFI (HLA-B*1511 (human)): 796 MFI
MFI (HLA-B*1513 (human)): 760 MFI
MFI (HLA-B*3701 (human)): 993 MFI
MFI (HLA-B*4101 (human)): 960 MFI
MFI (HLA-B*4403 (human)): 983 MFI
MFI (HLA-B*5101 (human)): 515 MFI
MFI (HLA-B*5201 (human)): 786 MFI
MFI (HLA-B*8201 (human)): 614 MFI
MFI (HLA-Cw*0303 (human)): 805 MFI
MFI (HLA-Cw*0304 (human) [1]): 783 MFI
MFI (HLA-Cw*0602 (human)): 839 MFI
MFI (HLA-Cw*1601 (human)): 752 MFI
MFI (HLA-Cw*1701 (human)): 847 MFI
MFI (HLA-Cw*1802 (human)): 4090 MFI
Substance: murine monoclonal antibody (MAb) MEM-E/02

MFI (HLA-A*2402 (A24) (human)): < 500 MFI
MFI (HLA-A*2403 (A24) (human)): < 500 MFI
MFI (HLA-A*2501 (A25) (human)): < 500 MFI
MFI (HLA-A*2601 (A26) (human)): < 500 MFI
MFI (HLA-A*2901 (A29) (human)): < 500 MFI
MFI (HLA-A*3002 (A30) (human)): 803 MFI
MFI (HLA-B*0801 (B8) (human)): < 500 MFI
MFI (HLA-B*1511 (B75) (human)): < 500 MFI
MFI (HLA-B*1513 (B77) (human)): 1550 MFI
MFI (HLA-B*1801 (B18) (human)): < 500 MFI
% inhibition (HLA-B*2708 (B27) (human)): 29%
MFI (HLA-B*2708 (B27) (human)): 2260 MFI
% inhibition (HLA-B*3801 (B38) (human)): 76%
MFI (HLA-B*3801 (B38) (human)): 929 MFI
MFI (HLA-B*3901 (B39) (human)): 530 MFI
MFI (HLA-B*4403 (B44) (human)): < 500 MFI
MFI (HLA-B*4501 (B45) (human)): < 500 MFI
MFI (HLA-B*5001 (B50) (human)): < 500 MFI
% inhibition (HLA-B*5201 (B52) (human)): 88%
% inhibition (HLA-B*5401 (B54) (human)): 95%
MFI (HLA-B*5401 (B54) (human)): 990 MFI
% inhibition (HLA-B*5801 (B58) (human)): 37%
MFI (HLA-B*5801 (B58) (human)): 2110 MFI
MFI (HLA-B*5901 (B59) (human)): 930 MFI
MFI (HLA-B*6701 (B67) (human)): < 500 MFI
MFI (HLA-Cw*0304 (human) [2]): < 500 MFI
MFI [3]: < 500 MFI
MFI [4]: < 500 MFI
MFI [5]: < 500 MFI
Substance: murine monoclonal antibody MAb MEM-E/02
